{"source": "paper PMC9989821", "assay_in_all_cases": "crystal structure; VP1 pentamers (His-tag cleaved) at 3-4 mg/mL, hanging drop vapor diffusion at 20°C, 10-18% PEG 3.350, 0.1 M HEPES pH 7.5, 0.1-0.3 M LiCl; self-association of VP1 into a pentamer", "key": {"[1]": {"biological_target": "BK polyomavirus VP1 mutant E73A (VP1 pentamer, residues 30-300) (BK polyomavirus) (UniProt P03088)"}, "[2]": {"biological_target": "BK polyomavirus VP1 mutant E73Q (VP1 pentamer, residues 30-300) (BK polyomavirus) (UniProt P03088)"}, "[3]": {"biological_target": "BK polyomavirus VP1 mutant N-Q, K69N E82Q (VP1 pentamer, residues 30-300) (BK polyomavirus) (UniProt P03088)"}, "[4]": {"biological_target": "BK polyomavirus VP1 mutant VQQ, A72V E73Q E82Q (VP1 pentamer, residues 30-300) (BK polyomavirus) (UniProt P03088)"}}}
{"substance": "BK polyomavirus VP1 mutant E73A (VP1 pentamer, residues 30-300) (from UniProt P03088 30-300) (domain or fragment)", "values": [{"measurement": "stoichiometry N", "setting": "[1]", "value": 5}]}
{"substance": "BK polyomavirus VP1 mutant E73Q (VP1 pentamer, residues 30-300) (from UniProt P03088 30-300) (domain or fragment)", "values": [{"measurement": "stoichiometry N", "setting": "[2]", "value": 5}]}
{"substance": "BK polyomavirus VP1 mutant N-Q, K69N E82Q (VP1 pentamer, residues 30-300) (from UniProt P03088 30-300) (domain or fragment)", "values": [{"measurement": "stoichiometry N", "setting": "[3]", "value": 5}]}
{"substance": "BK polyomavirus VP1 mutant VQQ, A72V E73Q E82Q (VP1 pentamer, residues 30-300) (from UniProt P03088 30-300) (domain or fragment)", "values": [{"measurement": "stoichiometry N", "setting": "[4]", "value": 5}]}
